Results taken from publication doi:10.1101/2020.07.09.195545.
Read-outs that look alike come from different tables or passages of the source.

B1: GTAC-consensus 30 bp (dsDNA)
DNA 1: GTCGCCGTACCGAGATCCGTACAGAGATCG
DNA 2: CGATCTCTGTACGGATCTCGGTACGGCGAC
B2: mutated GTAC-consensus 30 bp (shuffled core) (dsDNA)
DNA 1: GTCGCCACTGCGAGATCCACTGAGAGATCG
DNA 2: CGATCTCTCAGTGGATCTCGCAGTGGCGAC

How the values were obtained:
rLCRF-SBP [1] = molecular target: T1, rLCRF-SBP (Chlamydomonas reinhardtii, UniProt A0A2K3E5K7 866-1032); test: EMSA
rLCRF-SBP [2] = molecular target: T1, rLCRF-SBP; test: EMSA; remark: listed apart in the source

Binder | binding result (rLCRF-SBP [1]) | binding result (rLCRF-SBP [2])
B1 | binds | –
B2 | – | no binding
